Test results as given in paper PMC9101108, “Shifting CCR7 towards Its Monomeric Form Augments CCL19 Binding and Uptake” (Cells, 2022).
Positions count from the first letter of the chain named. One block for each binder: values may come before it.

How the values were obtained:
Conditions in all cases: one partner purified
[1] = biological target: T1, human CCR7 L325S fused to YPet (human, UniProt P32248 25-378, L325S); experiment: flow cytometry on cells; HeLa cells transiently expressing YPet-tagged CCR7 variants incubated at 4 °C for indicated times with 25 nM CCL19-S6^649P1, washed, MFI (chemokine binding)
T1 construct: chemokine receptor CCR7, human (hCCR7), point mutant L325S; also called hCCR7-YPet L325S; source: HeLa, transiently transfected (pcDNA3 hCCR7-YPet L325S), on cells; not shown: YPet, C-terminal, kept
T1 sequence (looked up): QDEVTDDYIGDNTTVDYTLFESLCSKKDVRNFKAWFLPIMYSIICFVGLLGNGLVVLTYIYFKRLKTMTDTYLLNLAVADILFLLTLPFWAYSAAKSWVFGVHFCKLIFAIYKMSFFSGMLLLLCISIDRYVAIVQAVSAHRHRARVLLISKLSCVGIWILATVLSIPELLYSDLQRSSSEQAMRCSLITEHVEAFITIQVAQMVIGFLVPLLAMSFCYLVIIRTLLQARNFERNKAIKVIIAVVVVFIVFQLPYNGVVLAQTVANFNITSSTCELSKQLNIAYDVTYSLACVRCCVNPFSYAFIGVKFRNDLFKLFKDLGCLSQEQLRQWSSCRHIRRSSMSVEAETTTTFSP

[2] = biological target: T2, human CCR7 A315G fused to YPet (human, UniProt P32248 25-378, A315G); experiment: as above
T2 construct: chemokine receptor CCR7, human (hCCR7), point mutant A315G; also called hCCR7-YPet A315G; source: HeLa, transiently transfected (pcDNA3 hCCR7-YPet A315G), on cells; not shown: YPet, C-terminal, kept
T2 sequence (looked up): T1 sequence (looked up) with A291G, S301L

[3] = biological target: T1, human CCR7 L325S fused to YPet; experiment: flow cytometry on cells; competition: HeLa cells transiently expressing YPet-tagged CCR7 variants, 37 °C, 30 min, 25 nM CCL19-S6^649P1 with graded concentrations of native unlabelled hCCL19; MFI (binding and uptake)
[4] = biological target: T3, human CCR7 wild-type fused to YPet (hCCR7-YPet) (human, UniProt P32248 25-378); experiment: as above
T3 construct: chemokine receptor CCR7, human (hCCR7); also called CCR7 WT; wild-type CCR7; source: HeLa, transiently transfected (pcDNA3 hCCR7-YPet), on cells; not shown: YPet, C-terminal, kept
T3 sequence (looked up): T1 sequence (looked up) with S301L

[5] = biological target: T2, human CCR7 A315G fused to YPet; experiment: as above
[6] = biological target: T4, human CCR7 SNP V317I fused to YPet (human, UniProt P32248 25-378, V317I); experiment: as above
T4 construct: chemokine receptor CCR7, human (hCCR7), naturally occurring SNP V317I; also called CCR7 V317I; hCCR7-YPet V317I; source: HeLa, transiently transfected (pcDNA3 hCCR7-YPet V317I), on cells; not shown: YPet, C-terminal, kept
T4 sequence (looked up): T1 sequence (looked up) with V293I, S301L

fold fluorescence of bound CCL19-S6^649P1 against wild-type CCR7 [1]: ~2 fold
fold fluorescence of bound CCL19-S6^649P1 against wild-type CCR7 [2]: ~2 fold
B1: human CCL19-S6 site-specifically labelled with Dy649P1 (hCCL19-S6^649P1) (ligand, UniProt Q99731 22-98, looked up)
chain: GTNDAEDCCLSVTQKPIPGYIVRNFHYLLIKDGCRVPAVVFTTLRGRQLCAPPDQPWVERIIQRLQRTSAKMKRRSS
modifications: Dy649P1 covalently and site-specifically attached (CoA-Dy649P1, SFP synthase)

Kd [3]: ~7 nM
Kd [4]: ~29 nM
Kd [5]: ~10 nM
Kd [6]: ~31 nM
B2: native human CCL19 (hCCL19), unlabelled (ligand, UniProt Q99731 22-98, looked up)
chain: B1 chain
